Earlier results as cited in paper PMC9785887.
pKd, pKi: −log10 of the molar value.

Tests used:
[1] = target: Integrin αvβ6 (Homo sapiens) (UniProt P06756)
[2] = target: Neuropilin-1 (Homo sapiens) (UniProt O14786)
Sequence of UniProt O14786 (O14786 22-856): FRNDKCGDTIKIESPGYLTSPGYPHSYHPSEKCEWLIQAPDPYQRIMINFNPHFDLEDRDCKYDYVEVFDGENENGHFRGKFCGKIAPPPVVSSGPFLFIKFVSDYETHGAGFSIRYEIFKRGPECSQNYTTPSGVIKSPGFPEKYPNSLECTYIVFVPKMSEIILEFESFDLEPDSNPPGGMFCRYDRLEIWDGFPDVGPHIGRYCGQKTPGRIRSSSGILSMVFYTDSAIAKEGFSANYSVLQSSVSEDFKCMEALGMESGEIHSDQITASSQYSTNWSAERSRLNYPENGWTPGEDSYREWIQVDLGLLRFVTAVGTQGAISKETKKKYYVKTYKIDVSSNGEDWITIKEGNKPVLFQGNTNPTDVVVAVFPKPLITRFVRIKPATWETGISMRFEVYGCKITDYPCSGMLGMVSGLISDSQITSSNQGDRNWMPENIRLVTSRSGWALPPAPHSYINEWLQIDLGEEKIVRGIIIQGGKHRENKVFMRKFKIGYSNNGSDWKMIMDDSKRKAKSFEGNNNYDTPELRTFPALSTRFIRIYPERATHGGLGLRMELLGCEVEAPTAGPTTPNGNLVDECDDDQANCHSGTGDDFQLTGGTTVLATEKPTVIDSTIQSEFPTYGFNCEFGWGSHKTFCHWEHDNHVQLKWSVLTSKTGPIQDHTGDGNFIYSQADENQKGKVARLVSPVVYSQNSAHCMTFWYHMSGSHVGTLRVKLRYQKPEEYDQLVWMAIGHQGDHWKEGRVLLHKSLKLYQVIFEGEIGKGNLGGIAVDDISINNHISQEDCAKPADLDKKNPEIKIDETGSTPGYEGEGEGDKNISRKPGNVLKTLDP

Sequence of UniProt P06756 (P06756 31-992, chain 1 of 2): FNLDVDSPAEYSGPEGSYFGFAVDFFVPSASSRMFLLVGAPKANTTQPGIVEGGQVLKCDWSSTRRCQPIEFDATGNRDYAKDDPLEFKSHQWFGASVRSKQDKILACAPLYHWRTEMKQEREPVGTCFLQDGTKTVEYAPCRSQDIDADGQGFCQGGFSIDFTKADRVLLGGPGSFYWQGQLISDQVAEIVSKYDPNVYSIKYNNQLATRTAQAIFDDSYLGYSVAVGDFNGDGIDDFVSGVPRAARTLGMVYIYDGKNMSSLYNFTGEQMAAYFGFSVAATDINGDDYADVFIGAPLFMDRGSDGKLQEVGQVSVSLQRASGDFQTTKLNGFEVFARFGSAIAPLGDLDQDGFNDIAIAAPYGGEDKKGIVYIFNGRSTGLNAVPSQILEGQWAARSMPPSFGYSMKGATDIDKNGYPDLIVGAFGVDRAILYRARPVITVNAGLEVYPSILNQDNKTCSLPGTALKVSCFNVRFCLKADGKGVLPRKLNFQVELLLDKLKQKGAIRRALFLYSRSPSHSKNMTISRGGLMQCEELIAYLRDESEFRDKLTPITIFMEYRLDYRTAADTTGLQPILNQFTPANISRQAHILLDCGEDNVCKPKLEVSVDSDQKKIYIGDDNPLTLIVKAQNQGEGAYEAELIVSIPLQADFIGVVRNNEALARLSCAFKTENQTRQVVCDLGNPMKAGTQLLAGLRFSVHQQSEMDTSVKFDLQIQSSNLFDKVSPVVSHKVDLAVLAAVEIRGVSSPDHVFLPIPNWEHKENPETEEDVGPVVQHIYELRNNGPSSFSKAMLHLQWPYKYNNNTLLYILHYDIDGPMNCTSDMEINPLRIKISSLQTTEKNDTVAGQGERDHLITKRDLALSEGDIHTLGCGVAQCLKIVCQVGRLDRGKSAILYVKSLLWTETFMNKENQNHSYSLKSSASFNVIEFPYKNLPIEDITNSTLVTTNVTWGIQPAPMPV
Sequence of UniProt P06756 (P18564 22-709, chain 2 of 2, further chain): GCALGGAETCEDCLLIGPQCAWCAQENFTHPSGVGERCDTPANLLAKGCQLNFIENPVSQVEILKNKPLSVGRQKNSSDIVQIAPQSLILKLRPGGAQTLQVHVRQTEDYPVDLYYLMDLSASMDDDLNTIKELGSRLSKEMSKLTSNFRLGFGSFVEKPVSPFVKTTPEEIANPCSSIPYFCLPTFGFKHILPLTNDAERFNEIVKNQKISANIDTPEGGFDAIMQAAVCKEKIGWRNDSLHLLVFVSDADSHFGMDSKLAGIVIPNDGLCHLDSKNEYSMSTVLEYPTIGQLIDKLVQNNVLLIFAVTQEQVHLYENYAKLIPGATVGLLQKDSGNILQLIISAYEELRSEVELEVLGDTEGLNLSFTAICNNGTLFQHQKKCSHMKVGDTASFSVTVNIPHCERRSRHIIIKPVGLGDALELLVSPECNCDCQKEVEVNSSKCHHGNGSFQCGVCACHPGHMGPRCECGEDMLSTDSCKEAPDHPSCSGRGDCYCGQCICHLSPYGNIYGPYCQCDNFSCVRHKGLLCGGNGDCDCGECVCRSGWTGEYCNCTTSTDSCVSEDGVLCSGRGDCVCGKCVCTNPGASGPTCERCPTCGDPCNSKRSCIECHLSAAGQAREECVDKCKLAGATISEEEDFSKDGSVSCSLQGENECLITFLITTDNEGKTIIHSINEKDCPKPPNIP
Sequence of Chromogranin A peptide CgA39-63 (P10645 57-81): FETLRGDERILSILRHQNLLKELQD

| pKi [1] | pKd [2] | Substance |
| --- | --- | --- |
| 7.81 |  | Chromogranin A peptide CgA39-63 |
|  | 8.46 | Chromogranin A 1-373 1-373 (from UniProt P10645) |
